Laboratory results as given in the supplement of paper PMC10126150.
± gives the standard deviation of the averaged measurements.

Test system: ATP
Experiment: switch fluorescence ratio, 500 uM ATP over buffer (Cy3 cluster intensity, sum of 5 cycles each) (fold (ratio)); higher = stronger signal-on switching upon ATP binding; sequences stand for … in TCGTCGGCAGCGTCAGATGTGTATAAGAGACAGTTTTTTTTTTTTTTTTTTTTTTTTT…TC
Details: aptamer strand: ATP DNA aptamer (quencher-CACCTGGGGGAGTATTGCGGAGGAAGG + anchor), 100 nM annealed; ATP concentration: 500 uM
Method in brief: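 Five buffer/ATP imaging cycles were run on Cy3-labelled switching-strand clusters on a modified Illumina MiSeq flow-cell, with NaOH stripping and re-annealing between cycles. In each cycle, clusters annealed to 100 nM quencher-labelled ATP aptamer were imaged in selection buffer, then after 15 min with 500 uM ATP at 22 °C. Per cluster, the fluorescence ratio is summed target-cycle over summed buffer-cycle Cy3 intensity, averaged per switch-domain sequence. Only clusters within 100-1000 RFU were kept.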
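Also: ATP exposure 15 min at 22 °C before imaging.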

| Sequence | switch fluorescence ratio |
| --- | --- |
| TGAATATTTT | 0.9787 ± 0.0076 |
| TGAATCCATT | 1 ± 0.036 |
| TGAATCCGGG | 1 ± 0.038 |
| TGAATCGTTT | 0.937 ± 0.043 |
| TGAATGGGTA | 0.983 ± 0.019 |
| TGAATGTATT | 1.03 ± 0.045 |
| TGAATTCCAT | 0.983 ± 0.023 |
| TGAATTGGGA | 1.02 ± 0.07 |
| TGAATTTCGA | 0.953 ± 0.025 |
| TGACACAGTA | 1.26 ± 0.21 |
| TGACACATAC | 2.24 ± 0.033 |
| TGACAGACAT | 1.1 ± 0.027 |
| TGACAGGCGG | 0.963 ± 0.011 |
| TGACAGTCGT | 0.977 ± 0.024 |
| TGACATCATT | 1.063 ± 0.002 |
| TGACATTGTA | 1.01 ± 0.072 |
| TGACGACGAG | 0.992 ± 0.052 |
| TGACGACTGT | 1 ± 0.021 |
| TGACGCAAGG | 2.8 ± 0.093 |
| TGACGCGGGG | 1.054 ± 0.0086 |
| TGACGCGTCA | 1.01 ± 0.013 |
| TGACGGAAGG | 1 ± 0.032 |
| TGACGGGGGC | 1.01 ± 0.014 |

| Sequence | switch fluorescence ratio |
| --- | --- |
| TGACGTAGTG | 0.991 ± 0.028 |
| TGACGTCGTA | 0.9689 ± 0.0094 |
| TGACGTGTTG | 1.02 ± 0.083 |
| TGACGTTAAA | 1.04 ± 0.067 |
| TGACGTTCGG | 0.978 ± 0.029 |
| TGACGTTGAG | 0.9868 ± 0.0056 |
| TGACGTTTGC | 1.03 ± 0.12 |
| TGACTAGTTT | 1.005 ± 0.0059 |
| TGACTCGGTG | 0.984 ± 0.015 |
| TGACTTAGTT | 0.999 ± 0.051 |
| TGACTTGCGT | 0.971 ± 0.042 |
| TGAGAACGCA | 1.2 ± 0.054 |
| TGAGAAGCAA | 1.34 ± 0.056 |
| TGAGAATTTT | 0.996 ± 0.032 |
| TGAGACAAGC | 1.05 ± 0.012 |
| TGAGAGGAGG | 1 ± 0.028 |
| TGAGAGGGGC | 0.973 ± 0.058 |
| TGAGAGGTTT | 0.9817 ± 0.0014 |
| TGAGATGAAG | 1.005 ± 0.0085 |
| TGAGATTGC | 1.03 ± 0.053 |
| TGAGCAGGTT | 1.017 ± 0.0094 |
| TGAGCATGCT | 1 ± 0.021 |
| TGAGCGAAGG | 0.9807 ± 0.0057 |

| Sequence | switch fluorescence ratio |
| --- | --- |
| TGAGCGGAGG | 1.01 ± 0.002 |
| TGAGCGGATG | 0.994 ± 0.036 |
| TGAGCGGGAG | 1.0564 ± 0.00029 |
| TGAGCGGGGG | 0.996 ± 0.021 |
| TGAGCTAAAT | 1.18 ± 0.31 |
| TGAGCTATAT | 1.42 ± 0.077 |
| TGAGCTCACG | 1.02 ± 0.027 |
| TGAGCTTGGG | 0.99 ± 0.022 |
| TGAGGAATGG | 0.9987 ± 0.0036 |
| TGAGGATACA | 1.016 ± 0.0029 |
| TGAGGATATA | 0.9887 ± 0.0059 |
| TGAGGATGGG | 0.975 ± 0.026 |
| TGAGGCCCCG | 0.991 ± 0.025 |
| TGAGGCTATG | 1 ± 0.021 |
| TGAGGCTGGG | 1.02 ± 0.054 |
| TGAGGGATGA | 1.028 ± 0.0075 |
| TGAGGGCAGC | 0.993 ± 0.026 |
| TGAGGGCGAT | 1.033 ± 0.0019 |
| TGAGGGGAGA | 1.02 ± 0.028 |
| TGAGGGGAGG | 1.13 ± 0.15 |
| TGAGGGGATG | 0.994 ± 0.023 |
| TGAGGGGGG | 1.01 ± 0.022 |
| TGAGGTAAGG | 0.997 ± 0.033 |

| Sequence | switch fluorescence ratio |
| --- | --- |
| TGAGGTACTA | 0.999 ± 0.053 |
| TGAGGTAGGG | 0.976 ± 0.053 |
| TGAGGTTAGA | 1.03 ± 0.029 |
| TGAGTAACGG | 1.02 ± 0.04 |
| TGAGTAAGGA | 1.03 ± 0.034 |
| TGAGTAAGGT | 0.995 ± 0.04 |
| TGAGTAATAG | 2.01 ± 0.87 |
| TGAGTAGCGT | 0.9631 ± 0.0063 |
| TGAGTCGGGA | 1.01 ± 0.014 |
| TGAGTCGTTG | 0.972 ± 0.01 |
| TGAGTGCTCT | 0.9733 ± 0.0062 |
| TGAGTGCTGC | 1.08 ± 0.075 |
| TGAGTGCTGG | 0.9741 ± 0.0017 |
| TGAGTGGACC | 0.992 ± 0.047 |
| TGAGTGGGTC | 1.03 ± 0.013 |
| TGAGTGTAGA | 1.07 ± 0.023 |
| TGAGTTTCGG | 0.9869 ± 0.0098 |
| TGATAAATTT | 1.01 ± 0.023 |
| TGATAAGGGG | 1.01 ± 0.039 |
| TGATACGCTA | 1.28 ± 0.23 |
| TGATACGGGG | 1.01 ± 0.026 |
| TGATAGAAGT | 1.01 ± 0.015 |
| TGATAGAGTG | 1.01 ± 0.074 |

| Sequence | switch fluorescence ratio |
| --- | --- |
| TGATAGCGGA | 1.03 ± 0.035 |
| TGATAGGAAG | 1 ± 0.019 |
| TGATAGTAT | 0.96 ± 0.037 |
| TGATATGTGT | 0.973 ± 0.053 |
| TGATCATACT | 1.035 ± 0.0046 |
| TGATCATATG | 0.982 ± 0.068 |
| TGATCATGTT | 0.984 ± 0.037 |
| TGATCCAGGG | 0.9873 ± 0.0081 |
| TGATCGGGGT | 1.02 ± 0.018 |
| TGATCGTG | 1.01 ± 0.015 |
| TGATCTGTCG | 0.9814 ± 0.0086 |
| TGATGAAAAA | 1.01 ± 0.04 |
| TGATGAAAGA | 0.996 ± 0.021 |
| TGATGAAATG | 1.01 ± 0.049 |
| TGATGAATGG | 0.9899 ± 0.0092 |
| TGATGCAGAA | 1.036 ± 0.0041 |
| TGATGCATAA | 1.04 ± 0.034 |
| TGATGCTAGG | 1.01 ± 0.021 |
| TGATGCTTTT | 1.01 ± 0.035 |
| TGATGGATAA | 1.01 ± 0.027 |
| TGATGGCCGG | 1.05 ± 0.04 |
| TGATGGCTGC | 1.04 ± 0.013 |
| TGATGGGCAT | 1.01 ± 0.018 |

| Sequence | switch fluorescence ratio |
| --- | --- |
| TGATGGTGCC | 0.986 ± 0.014 |
| TGATGGTTCA | 0.941 ± 0.077 |
| TGATGTAATG | 1 ± 0.02 |
| TGATGTAGAG | 0.99 ± 0.029 |
| TGATGTATCA | 1.01 ± 0.08 |
| TGATGTGATG | 0.995 ± 0.012 |
| TGATGTTGGT | 0.988 ± 0.014 |
| TGATTATAGA | 0.983 ± 0.03 |
| TGATTATGGG | 0.9781 ± 0.0063 |
| TGATTATGTT | 1.04 ± 0.035 |
| TGATTCCGCA | 3.07 ± 0.12 |
| TGATTCGGTT | 1.037 ± 0.0089 |
| TGATTCTAGC | 0.972 ± 0.011 |
| TGATTCTTAT | 0.97 ± 0.014 |
| TGATTGGATG | 0.9855 ± 0.007 |
| TGATTTAACC | 1.05 ± 0.021 |
| TGATTTCCAT | 0.9996 ± 0.0064 |
| TGATTTGACC | 1.03 ± 0.051 |
| TGATTTGGGG | 0.9675 ± 0.0076 |
| TGATTTTGGA | 0.974 ± 0.012 |
| TGATTTTGGC | 1.01 ± 0.017 |
| TGCAAAAGAG | 1.01 ± 0.062 |
| TGCAAGGCGC | 1.23 ± 0.24 |

| Sequence | switch fluorescence ratio |
| --- | --- |
| TGCAAGTTCG | 0.9694 ± 0.0095 |
| TGCAATTGGG | 1.08 ± 0.022 |
| TGCAATTTGT | 1 ± 0.078 |
| TGCACAGTCG | 1.01 ± 0.036 |
| TGCACCGAGT | 1.04 ± 0.018 |
| TGCAGAAATT | 0.98 ± 0.059 |
| TGCAGAGCAC | 1.01 ± 0.028 |
| TGCAGAGGGC | 1.03 ± 0.02 |
| TGCAGGCAAG | 1.01 ± 0.024 |
| TGCAGGGATC | 1.03 ± 0.017 |
| TGCAGGGGCG | 1.04 ± 0.14 |
| TGCAGGTAGG | 1.04 ± 0.036 |
| TGCAGGTTGG | 1.03 ± 0.036 |
| TGCAGTCTGT | 0.988 ± 0.034 |
| TGCAGTGGTT | 1.01 ± 0.03 |
| TGCAGTTTGA | 1.02 ± 0.012 |
| TGCATAAGAA | 0.955 ± 0.03 |
| TGCATAATCT | 1.04 ± 0.026 |
| TGCATAGGGG | 0.999 ± 0.018 |
